Measured values from publication PMC5768801, “The PII signaling protein from red algae represents an evolutionary link between cyanobacterial and Chloroplastida PII proteins” (Scientific Reports, 2018).

Key:
[1] = target: T1, N-acetyl-L-glutamate kinase from Synechocystis sp. PCC 6803 with an N-terminal His6 tag (Synechocystis sp. PCC 6803) (UniProt P73326)
T1 sequence: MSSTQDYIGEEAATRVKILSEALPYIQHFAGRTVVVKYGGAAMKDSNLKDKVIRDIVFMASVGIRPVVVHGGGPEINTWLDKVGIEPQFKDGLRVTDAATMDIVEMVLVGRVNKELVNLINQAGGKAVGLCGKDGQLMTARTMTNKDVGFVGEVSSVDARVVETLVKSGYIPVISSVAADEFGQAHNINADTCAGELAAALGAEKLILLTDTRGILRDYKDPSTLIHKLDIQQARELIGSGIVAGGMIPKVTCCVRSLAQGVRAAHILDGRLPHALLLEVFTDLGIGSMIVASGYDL

[2] = target: T1, N-acetyl-L-glutamate kinase from Synechocystis sp. PCC 6803 with an N-terminal His6 tag (Synechocystis sp. PCC 6803); remark: listed apart in the source

PII protein from the red alga Porphyra purpurea with a C-terminal Strep-tag II, sequence (P51254 whole entry): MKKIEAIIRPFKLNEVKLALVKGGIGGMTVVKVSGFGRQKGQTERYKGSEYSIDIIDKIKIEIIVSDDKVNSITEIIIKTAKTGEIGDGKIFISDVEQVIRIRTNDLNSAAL

Substance “PII protein from the red alga Porphyra purpurea with a C-terminal Strep-tag II (from UniProt P51254 1-112) (natural protein)” has a catalytic efficiency (Kcat/Km) of ScNAGK in the coupled NAGK activity assay, PpPII-complexed (free ScNAGK: 0.55 × 10^3 s^−1M^−1); NAG varied at 10 mM ATP [1] of 2360 s^−1M^−1 and a relief of ScNAGK from feedback inhibition by arginine: rise of the IC50 for arginine on addition of PpPII (free ScNAGK: IC50 6.2 µM), coupled NAGK assay, without glutamine [2] of 4 fold.
